Paper PMC8064889

Molecular target: SARS-CoV-2 RBD, His6-tagged, for biolayer interferometry (SARS-CoV-2) (UniProt P0DTC2)
Test: BLI

CR3022 Fab was tested, and the Kd was 46.3 nM.
